According to publication PMC3675161 (Biochemistry, 2013):

Target: the molecule itself
Assay: SEC

B1: cytoplasmic portion of selenoprotein S with its native selenocysteine (cSelS) (domain or fragment, human, UniProt Q9BQE4 52-189, looked up)
chain: SARLRALRQRQLDRAAAAVEPDVVVKRQEALAAARLKMQEELNAQVEKHKEKLKQLEEEKRRQKIEMWDSMQEGKSYKGNAKKPQEEDSPGPSTSSVLKRKSDRKPLRGGGYNPLSGEGGGACSWRPGRRGPSSGGUG
modifications: selenocysteine at position 188
- stoichiometry N: 2
